Measurements reported in patent US20220098329A1 (Memorial Sloan Kettering, published 2022).

Tests used:
[1] = target: T1, huCD3de antigen (human CD3 delta/epsilon, coated on SPR chip) (human, UniProt P07766 23-126; P04234 22-105); experiment: SPR (Biacore T200), huCD3de-coated chip, BsAb titrated over chip, two-state reaction model
T1 construct: Source and construct are not described; also called CD3 coated chips

[2] = target: T1, huCD3de antigen (human CD3 …); experiment: SPR (Biacore T200), huCD3de-coated chip
[3] = target: T2, CD33 on MOLM13-fluc cells (UniProt P20138 18-364, limits assumed); experiment: flow cytometry, CD33(+) MOLM13-fluc cells
T2 construct: whole, on cells; also called CD33(+) MOLM13-fluc
T2 sequence (P20138 18-364 limits assumed): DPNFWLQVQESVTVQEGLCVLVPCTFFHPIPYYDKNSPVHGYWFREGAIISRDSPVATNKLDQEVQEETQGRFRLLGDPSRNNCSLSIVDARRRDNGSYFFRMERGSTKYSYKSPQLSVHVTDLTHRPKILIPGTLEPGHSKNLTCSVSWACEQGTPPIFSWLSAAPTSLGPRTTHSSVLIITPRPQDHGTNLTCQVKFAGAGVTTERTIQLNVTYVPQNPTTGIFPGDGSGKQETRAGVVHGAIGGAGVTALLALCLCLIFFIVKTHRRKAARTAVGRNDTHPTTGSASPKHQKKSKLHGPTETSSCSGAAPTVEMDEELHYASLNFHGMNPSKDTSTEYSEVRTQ

T1 sequence (P07766 23-126, stated change not applied, chain 1 of 2): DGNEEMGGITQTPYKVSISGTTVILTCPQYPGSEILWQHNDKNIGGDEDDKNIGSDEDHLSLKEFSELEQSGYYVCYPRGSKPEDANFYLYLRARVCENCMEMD
T1 sequence (P04234 22-105, stated change not applied, chain 2 of 2): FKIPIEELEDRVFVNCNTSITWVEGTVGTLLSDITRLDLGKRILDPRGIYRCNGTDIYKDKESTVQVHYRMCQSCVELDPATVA

B1: 1+1T IgG-[L]-scFv variant, one anti-GD2 Fab and one anti-CD3 scFv in trans, second Fab irrelevant (anti-CD33) (bispecific antibody)
light 1: EIVMTQTPATLSVSAGERVTITCKASQSVSNDVTWYQQKPGQAPRLLIYSASNRYSGVPARFSGSGYGTEFTFTISSVQSEDFAVYFCQQDYSSFGQGTKLEIKRTVAAPSVFIFPPSDEQLKSGTASVVCLLNNFYPREAKVQWKVDNALQSGNSQESVTEQDSKDSTYSLSSTLTLSKADYEKHKVYACEVTHQGLSSPVTKSFNRGEC
heavy 1: not shown
light 2: EIVLTQSPATLSVSLGERATISCRASESVDNYGISFMNWFQQKPGQPPRLLIYAASNQGSGVPARFSGSGPGTDFTLTISSMEPEDFAMYFCQQSKEVPWTFGGGTKLEIKRTVAAPSVFIFPPSDEQLKSGTASVVCLLNNFYPREAKVQWKVDNALQSGNSQESVTEQDSKDSTYSLSSTLTLSKADYEKHKVYACEVTHQGLSSPVTKSFNRGECTSGGGGSGGGGSGGGGSQVQLVQSGGGVVQPGRSLRLSCKASGYTFTRYTMHWVRQAPGKCLEWIGYINPSRGYTNYNQKFKDRFTISRDNSKNTAFLQMDSLRPEDTGVYFCARYYDDHYSLDYWGQGTPVTVSSGGGGSGGGGSGGGGSGGGGSGGGGSGGGGSDIQMTQSPSSLSASVGDRVTITCSASSSVSYMNWYQQTPGKAPKRWIYDTSKLASGVPSRFSGSGSGTDYTFTISSLQPEDIATYYCQQWSSNPFTFGCGTKLQITR
heavy 2: not shown
Kd [1]: 88 nM | Fold Change (KD CD3, against 2+2) [2]: 8.5 fold

B2: 2+2 IgG-[L]-scFv, anti-CD33 Fab x anti-CD3 scFv (bispecific antibody)
light: EIVLTQSPATLSVSLGERATISCRASESVDNYGISFMNWFQQKPGQPPRLLIYAASNQGSGVPARFSGSGPGTDFTLTISSMEPEDFAMYFCQQSKEVPWTFGGGTKLEIKRTVAAPSVFIFPPSDEQLKSGTASVVCLLNNFYPREAKVQWKVDNALQSGNSQESVTEQDSKDSTYSLSSTLTLSKADYEKHKVYACEVTHQGLSSPVTKSFNRGECTSGGGGSGGGGSGGGGSQVQLVQSGGGVVQPGRSLRLSCKASGYTFTRYTMHWVRQAPGKCLEWIGYINPSRGYTNYNQKFKDRFTISRDNSKNTAFLQMDSLRPEDTGVYFCARYYDDHYSLDYWGQGTPVTVSSGGGGSGGGGSGGGGSGGGGSGGGGSGGGGSDIQMTQSPSSLSASVGDRVTITCSASSSVSYMNWYQQTPGKAPKRWIYDTSKLASGVPSRFSGSGSGTDYTFTISSLQPEDIATYYCQQWSSNPFTFGCGTKLQITR
heavy: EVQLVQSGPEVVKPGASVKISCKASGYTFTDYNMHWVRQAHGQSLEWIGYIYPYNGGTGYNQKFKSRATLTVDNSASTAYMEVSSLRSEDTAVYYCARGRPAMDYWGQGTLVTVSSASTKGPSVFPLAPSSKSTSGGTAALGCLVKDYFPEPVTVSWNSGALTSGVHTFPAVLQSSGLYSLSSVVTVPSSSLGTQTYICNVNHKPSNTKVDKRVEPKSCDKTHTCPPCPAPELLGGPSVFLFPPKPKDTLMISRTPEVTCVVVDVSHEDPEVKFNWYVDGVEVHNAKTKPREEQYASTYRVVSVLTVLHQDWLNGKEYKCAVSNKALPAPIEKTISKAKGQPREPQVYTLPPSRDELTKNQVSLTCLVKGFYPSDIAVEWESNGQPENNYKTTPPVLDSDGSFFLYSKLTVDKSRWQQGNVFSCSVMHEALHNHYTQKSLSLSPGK
notes: also called 2+2 (CD33); anti-CD33/CD3 IgG-[L]-scFv
binding result [3]: binds

B3: IgG-Het, heterodimeric IgG with one anti-GD2 Fab and one anti-CD3 Fab (1+1) (bispecific antibody)
light 1: EIVMTQTPATLSVSAGERVTITCKASQSVSNDVTWYQQKPGQAPRLLIYSASNRYSGVPARFSGSGYGTEFTFTISSVQSEDFAVYFCQQDYSSFGQGTKLEIKRTVAAPSVFIFPPSDEQLKSGTASVVCLLNNFYPREAKVQWKVDNALQSGNSQESVTEQDSKDSTYSLSSTLTLSKADYEKHKVYACEVTHQGLSSPVTKSFNRGEC
heavy 1: not shown
light 2: DIQMTQSPSSLSASVGDRVTITCSASSSVSYMNWYQQTPGKAPKRWIYDTSKLASGVPSRFSGSGSGTDYTFTISSLQPEDIATYYCQQWSSNPFTFGQGTKLQITRTVAAPSVFIFPPSDEQLKSGTASVVCLLNNFYPREAKVQWKVDNALQSGNSQESVTEQDSKDSTYSLSSTLTLSKADYEKHKVYACEVTHQGLSSPVTKSFNRGEC
heavy 2: not shown
notes: also called 1+1H; 1 + 1H
Kd [1]: 70 nM | Fold Change (KD CD3, against 2+2) [2]: 6.8 fold

B4: 2+2 IgG-[L]-scFv bispecific antibody, anti-GD2 Fab x anti-CD3 scFv (2(GD2)+2(CD3)) (bispecific antibody)
light: EIVMTQTPATLSVSAGERVTITCKASQSVSNDVTWYQQKPGQAPRLLIYSASNRYSGVPARFSGSGYGTEFTFTISSVQSEDFAVYFCQQDYSSFGQGTKLEIKRTVAAPSVFIFPPSDEQLKSGTASVVCLLNNFYPREAKVQWKVDNALQSGNSQESVTEQDSKDSTYSLSSTLTLSKADYEKHKVYACEVTHQGLSSPVTKSFNRGECTSGGGGSGGGGSGGGGSQVQLVQSGGGVVQPGRSLRLSCKASGYTFTRYTMHWVRQAPGKCLEWIGYINPSRGYTNYNQKFKDRFTISRDNSKNTAFLQMDSLRPEDTGVYFCARYYDDHYSLDYWGQGTPVTVSSGGGGSGGGGSGGGGSGGGGSGGGGSGGGGSDIQMTQSPSSLSASVGDRVTITCSASSSVSYMNWYQQTPGKAPKRWIYDTSKLASGVPSRFSGSGSGTDYTFTISSLQPEDIATYYCQQWSSNPFTFGCGTKLQITR
heavy: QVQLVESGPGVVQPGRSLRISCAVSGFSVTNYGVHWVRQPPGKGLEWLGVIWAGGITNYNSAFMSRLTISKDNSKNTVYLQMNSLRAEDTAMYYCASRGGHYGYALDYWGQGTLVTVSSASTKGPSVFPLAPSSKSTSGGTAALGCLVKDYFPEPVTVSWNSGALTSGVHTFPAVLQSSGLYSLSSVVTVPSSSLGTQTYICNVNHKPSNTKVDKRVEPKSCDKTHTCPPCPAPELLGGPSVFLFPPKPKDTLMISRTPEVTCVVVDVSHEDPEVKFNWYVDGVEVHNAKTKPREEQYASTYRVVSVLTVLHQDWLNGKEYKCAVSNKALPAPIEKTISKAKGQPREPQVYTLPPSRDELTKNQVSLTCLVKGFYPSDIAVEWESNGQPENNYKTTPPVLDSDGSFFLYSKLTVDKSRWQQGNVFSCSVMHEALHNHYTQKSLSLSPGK
notes: Homodimeric format; also called 2+2 BsAb; parental 2+2
Kd [1]: 10 nM

B5: 1+1C IgG-[L]-scFv variant, one anti-GD2 Fab and one anti-CD3 scFv in cis, second Fab irrelevant (anti-CD33) (bispecific antibody)
light 1: EIVMTQTPATLSVSAGERVTITCKASQSVSNDVTWYQQKPGQAPRLLIYSASNRYSGVPARFSGSGYGTEFTFTISSVQSEDFAVYFCQQDYSSFGQGTKLEIKRTVAAPSVFIFPPSDEQLKSGTASVVCLLNNFYPREAKVQWKVDNALQSGNSQESVTEQDSKDSTYSLSSTLTLSKADYEKHKVYACEVTHQGLSSPVTKSFNRGECTSGGGGSGGGGSGGGGSQVQLVQSGGGVVQPGRSLRLSCKASGYTFTRYTMHWVRQAPGKCLEWIGYINPSRGYTNYNQKFKDRFTISRDNSKNTAFLQMDSLRPEDTGVYFCARYYDDHYSLDYWGQGTPVTVSSGGGGSGGGGSGGGGSGGGGSGGGGSGGGGSDIQMTQSPSSLSASVGDRVTITCSASSSVSYMNWYQQTPGKAPKRWIYDTSKLASGVPSRFSGSGSGTDYTFTISSLQPEDIATYYCQQWSSNPFTFGCGTKLQITR
heavy 1: not shown
light 2: EIVLTQSPATLSVSLGERATISCRASESVDNYGISFMNWFQQKPGQPPRLLIYAASNQGSGVPARFSGSGPGTDFTLTISSMEPEDFAMYFCQQSKEVPWTFGGGTKLEIKRTVAAPSVFIFPPSDEQLKSGTASVVCLLNNFYPREAKVQWKVDNALQSGNSQESVTEQDSKDSTYSLSSTLTLSKADYEKHKVYACEVTHQGLSSPVTKSFNRGEC
heavy 2: not shown
Kd [1]: 110 nM | Fold Change (KD CD3, against 2+2) [2]: 11 fold

B6: 2+1 IgG-[L]-scFv variant, two anti-GD2 Fabs and one anti-CD3 scFv (2(GD2)+1(CD3)) (bispecific antibody)
light 1: EIVMTQTPATLSVSAGERVTITCKASQSVSNDVTWYQQKPGQAPRLLIYSASNRYSGVPARFSGSGYGTEFTFTISSVQSEDFAVYFCQQDYSSFGQGTKLEIKRTVAAPSVFIFPPSDEQLKSGTASVVCLLNNFYPREAKVQWKVDNALQSGNSQESVTEQDSKDSTYSLSSTLTLSKADYEKHKVYACEVTHQGLSSPVTKSFNRGECTSGGGGSGGGGSGGGGSQVQLVQSGGGVVQPGRSLRLSCKASGYTFTRYTMHWVRQAPGKCLEWIGYINPSRGYTNYNQKFKDRFTISRDNSKNTAFLQMDSLRPEDTGVYFCARYYDDHYSLDYWGQGTPVTVSSGGGGSGGGGSGGGGSGGGGSGGGGSGGGGSDIQMTQSPSSLSASVGDRVTITCSASSSVSYMNWYQQTPGKAPKRWIYDTSKLASGVPSRFSGSGSGTDYTFTISSLQPEDIATYYCQQWSSNPFTFGCGTKLQITR
light 2: EIVMTQTPATLSVSAGERVTITCKASQSVSNDVTWYQQKPGQAPRLLIYSASNRYSGVPARFSGSGYGTEFTFTISSVQSEDFAVYFCQQDYSSFGQGTKLEIKRTVAAPSVFIFPPSDEQLKSGTASVVCLLNNFYPREAKVQWKVDNALQSGNSQESVTEQDSKDSTYSLSSTLTLSKADYEKHKVYACEVTHQGLSSPVTKSFNRGEC
heavy 1: QVQLVESGPGVVQPGRSLRISCAVSGFSVTNYGVHWVRQPPGKGLEWLGVIWAGGITNYNSAFMSRLTISKDNSKNTVYLQMNSLRAEDTAMYYCASRGGHYGYALDYWGQGTLVTVSSASTKGPSVFPLAPSSKSTSGGTAALGCLVKDYFPEPVTVSWNSGALTSGVHTFPAVLQSSGLYSLSSVVTVPSSSLGTQTYICNVNHKPSNTKVDKRVEPKSCDKTHTCPPCPAPELLGGPSVFLFPPKPKDTLMISRTPEVTCVVVDVSHEDPEVKFNWYVDGVEVHNAKTKPREEQYASTYRVVSVLTVLHQDWLNGKEYKCAVSNKALPAPIEKTISKAKGQPREPQVYTLPPSRDELTKNQVSLTCLVKGFYPSDIAVEWESNGQPENNYKTTPPVLDSDGSFLLYSKLTVDKSRWQQGNVFSCSVMHEALHNHYTQKSLSLSPGK
heavy 2: QVQLVESGPGVVQPGRSLRISCAVSGFSVTNYGVHWVRQPPGKGLEWLGVIWAGGITNYNSAFMSRLTISKDNSKNTVYLQMNSLRAEDTAMYYCASRGGHYGYALDYWGQGTLVTVSSASTKGPSVFPLAPSSKSTSGGTAALGCLVKDYFPEPVTVSWNSGALTSGVHTFPAVLQSSGLYSLSSVVTVPSSSLGTQTYICNVNHKPSNTKVDKRVEPKSCDKTHTCPPCPAPELLGGPSVFLFPPKPKDTLMISRTPEVTCVVVDVSHEDPEVKFNWYVDGVEVHNAKTKPREEQYASTYRVVSVLTVLHQDWLNGKEYKCAVSNKALPAPIEKTISKAKGQPREPQVYTLPPSRDELTKNQVSLTCLVKGFYPSDIAVEWESNGQPENNYKTTPPVLDSDGSFFLYSRLTVDKSRWQQGNVFSCSVMHEALHNHYTQKSLSLSPGK
notes: Heterodimer made by Fab arm exchange; Choice of the first anti-GD2 set as for m1; also called 2+1 BsAb
Kd [1]: 310 nM | Fold Change (KD CD3, against 2+2) [2]: 30.1 fold

B7: 1+2 IgG-[L]-scFv variant, one anti-GD2 Fab, one irrelevant (anti-CD33) Fab, two anti-CD3 scFv (1(GD2)+2(CD3)) (bispecific antibody)
light 1: EIVMTQTPATLSVSAGERVTITCKASQSVSNDVTWYQQKPGQAPRLLIYSASNRYSGVPARFSGSGYGTEFTFTISSVQSEDFAVYFCQQDYSSFGQGTKLEIKRTVAAPSVFIFPPSDEQLKSGTASVVCLLNNFYPREAKVQWKVDNALQSGNSQESVTEQDSKDSTYSLSSTLTLSKADYEKHKVYACEVTHQGLSSPVTKSFNRGECTSGGGGSGGGGSGGGGSQVQLVQSGGGVVQPGRSLRLSCKASGYTFTRYTMHWVRQAPGKCLEWIGYINPSRGYTNYNQKFKDRFTISRDNSKNTAFLQMDSLRPEDTGVYFCARYYDDHYSLDYWGQGTPVTVSSGGGGSGGGGSGGGGSGGGGSGGGGSGGGGSDIQMTQSPSSLSASVGDRVTITCSASSSVSYMNWYQQTPGKAPKRWIYDTSKLASGVPSRFSGSGSGTDYTFTISSLQPEDIATYYCQQWSSNPFTFGCGTKLQITR
heavy 1: not shown
light 2: EIVLTQSPATLSVSLGERATISCRASESVDNYGISFMNWFQQKPGQPPRLLIYAASNQGSGVPARFSGSGPGTDFTLTISSMEPEDFAMYFCQQSKEVPWTFGGGTKLEIKRTVAAPSVFIFPPSDEQLKSGTASVVCLLNNFYPREAKVQWKVDNALQSGNSQESVTEQDSKDSTYSLSSTLTLSKADYEKHKVYACEVTHQGLSSPVTKSFNRGECTSGGGGSGGGGSGGGGSQVQLVQSGGGVVQPGRSLRLSCKASGYTFTRYTMHWVRQAPGKCLEWIGYINPSRGYTNYNQKFKDRFTISRDNSKNTAFLQMDSLRPEDTGVYFCARYYDDHYSLDYWGQGTPVTVSSGGGGSGGGGSGGGGSGGGGSGGGGSGGGGSDIQMTQSPSSLSASVGDRVTITCSASSSVSYMNWYQQTPGKAPKRWIYDTSKLASGVPSRFSGSGSGTDYTFTISSLQPEDIATYYCQQWSSNPFTFGCGTKLQITR
heavy 2: not shown
notes: also called 1+2 BsAb
Kd [1]: 11 nM | Fold Change (KD CD3, against 2+2) [2]: 1 fold
